Laboratory results from article PMC9606215.

Tests used:
complement C3b [1] = molecular target: complement C3b (UniProt P01024); assay: SPR; proenzyme C3bB formation: C3b amine-coupled to a CM5 chip; CFB flowed at 0.125-4.0 uM, 30 ul/min; 10 mM HEPES pH 7.4, 50 mM NaCl, 3 mM MgCl2, 0.005% surfactant P20; without CFD; Biacore
complement C3b [2] = molecular target: complement C3b (UniProt P01024); assay: SPR; C3b amine-coupled to a CM5 chip; CFB flowed at 0.125-4.0 μM, 30 μl/min; 10 mM HEPES pH 7.4, 50 mM NaCl, 3 mM MgCl2, 0.005% surfactant P20; without CFD (proenzyme C3bB formation); two state interaction model
complement C3b [3] = molecular target: complement C3b (UniProt P01024); assay: SPR; C3b amine-coupled to a CM5 chip; CFB as analyte at 1.0-4.0 μM in 10 mM HEPES pH 7.4, 50 mM NaCl, 3 mM MgCl2, 1 mM CFD, 0.005% surfactant P20 (activated C3 convertase C3bBb formation); two state interaction model
complement C3b [4] = molecular target: complement C3b (UniProt P01024); assay: SPR; activated C3 convertase C3bBb formation: C3b amine-coupled to a CM5 chip; CFB flowed at 1.0-4.0 uM with complement factor D (1 mM [sic] CFD); 10 mM HEPES pH 7.4, 50 mM NaCl, 3 mM MgCl2, 0.005% surfactant P20; Biacore

koff (complement C3b [1]) [s⁻¹] | kon (complement C3b [1]) [M⁻¹ s⁻¹] | Kd (complement C3b [2]) [nM] | Kd (complement C3b [3]) [nM] | koff (complement C3b [4]) [s⁻¹] | kon (complement C3b [4]) [M⁻¹ s⁻¹] | Kd (complement C3b [1]) [nM] | Substance
0.015 | 6700 | 2250 | 318 | 0.00236 | 7420 |  | complement factor B, R32W variant (32W) (from UniProt P00751 26-764) (natural protein)
0.0088 | 14500 | 610 | 77.3 | 0.00247 | 32000 | 608 | complement factor B, wild type (32R) (from UniProt P00751 26-764) (natural protein)
